What was measured:
[1] = target: T1, Human dendritic cell–specific ICAM-3–grabbing non-integrin (DC-SIGN; CD209), Q9NNX6; experiment: flow cytometry on cells (hDC-SIGN+/SIGN-R1-/- murine BMDMs); conditions: type I FcγRs blocked; PBS control = 1; read off a plot
T1 chain: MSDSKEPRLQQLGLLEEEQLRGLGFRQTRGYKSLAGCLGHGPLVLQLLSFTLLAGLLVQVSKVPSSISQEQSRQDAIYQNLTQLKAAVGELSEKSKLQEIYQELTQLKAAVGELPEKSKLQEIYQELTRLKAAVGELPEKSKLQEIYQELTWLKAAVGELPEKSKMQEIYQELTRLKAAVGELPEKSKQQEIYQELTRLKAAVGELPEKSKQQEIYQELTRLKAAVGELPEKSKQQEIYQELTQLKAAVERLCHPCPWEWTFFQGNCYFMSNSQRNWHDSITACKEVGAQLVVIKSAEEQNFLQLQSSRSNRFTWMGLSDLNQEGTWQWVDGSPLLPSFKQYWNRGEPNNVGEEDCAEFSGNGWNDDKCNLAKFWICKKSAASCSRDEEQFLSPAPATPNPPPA

[2] = target: Human neonatal Fc receptor (hFcRn), P55899; experiment: SPR; biolayer interferometry (citing paragraph); conditions: chain shown with the change

- response (fold change in MFI (normalized to PBS)) [1]: 1.4
- Kd [2]: 5.2 nM
B1: Wild-type human IgG1 Fc (Fc^WT) M252Y; S254T; T256E; H433K; N434F (protein)
chain: DKTHTCPPCPAPELLGGPSVFLFPPKPKDTLYITREPEVTCVVVDVSHEDPEVKFNWYVDGVEVHNAKTKPREEQYNSTYRVVSVLTVLHQDWLNGKEYKCKVSNKALPAPIEKTISKAKGQPREPQVYTLPPSRDELTKNQVSLTCLVKGFYPSDIAVEWESNGQPENNYKTTPPVLDSDGSFFLYSKLTVDKSRWQQGNVFSCSVMHEALKFHYTQKSLSLSPGK
